Data: patent US10800813 (Bicycle, dated 2020)
Numbered stars: 1 amine (or outer) side, 2 acyl side, 3 side chain; on linkers, the order of the positions; unused ones are H or OH. Bridge positions count the residues as written; N and C are the ends. Square brackets hold non-standard residues; d marks the D form. Ends that are not written are not given here. Ind = L-indoline-2-carboxylic acid, O=C([C@@H]1Cc2ccccc2N1[*:1])[*:2]; Bip = N[C@@H](Cc1ccc(-c2ccccc2)cc1)C(=O)O; Tpi = O=C(O)[C@@H]1Cc2c([nH]c3ccccc23)CN1; Dip = N[C@H](C(=O)O)C(c1ccccc1)c1ccccc1; 1Nal = N[C@@H](Cc1cccc2ccccc12)C(=O)O; 2Nal = N[C@@H](Cc1ccc2ccccc2c1)C(=O)O; TBMB = c1c(C[*:1])cc(C[*:3])cc1C[*:2]; Hyp = O=C(O)[C@@H]1C[C@@H](O)CN1; 3Pal = N[C@@H](Cc1cccnc1)C(=O)O; 4Pal = N[C@@H](Cc1ccncc1)C(=O)O; Tic = O=C(O)[C@@H]1Cc2ccccc2CN1; Cha = N[C@@H](CC1CCCCC1)C(=O)O; 4FluoPro = 4-fluoroproline; Pip = O=C(O)[C@@H]1CCCCN1; Aze = O=C(O)[C@@H]1CCN1; Aib = CC(C)(N)C(=O)O

Target: T1, human plasma Kallikrein (human, UniProt P03952 20-638, limits assumed)
T1 construct: also called hPK; human PK
T1 sequence (P03952 20-638 limits assumed): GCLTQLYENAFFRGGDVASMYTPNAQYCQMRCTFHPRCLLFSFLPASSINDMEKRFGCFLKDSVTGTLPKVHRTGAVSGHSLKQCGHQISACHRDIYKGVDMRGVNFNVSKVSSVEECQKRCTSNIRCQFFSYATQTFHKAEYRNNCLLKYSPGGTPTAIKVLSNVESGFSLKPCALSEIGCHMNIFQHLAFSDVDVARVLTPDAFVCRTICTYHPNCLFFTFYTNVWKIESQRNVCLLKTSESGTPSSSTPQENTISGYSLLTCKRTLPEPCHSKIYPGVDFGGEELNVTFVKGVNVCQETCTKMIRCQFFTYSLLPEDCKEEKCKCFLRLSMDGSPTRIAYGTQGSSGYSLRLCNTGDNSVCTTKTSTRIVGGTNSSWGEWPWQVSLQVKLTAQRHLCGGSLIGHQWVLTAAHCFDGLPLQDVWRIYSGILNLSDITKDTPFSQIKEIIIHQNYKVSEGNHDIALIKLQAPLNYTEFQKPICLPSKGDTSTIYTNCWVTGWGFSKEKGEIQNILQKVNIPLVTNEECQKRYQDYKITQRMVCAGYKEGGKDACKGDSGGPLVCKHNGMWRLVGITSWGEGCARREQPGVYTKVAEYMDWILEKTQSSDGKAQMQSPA
Experiment: enzyme inhibition assay

Binder	Ki
Ac-CS[2Nal]PARCLHQDLC-NH2 (linker 1-7-13 via TBMB; SMILES CC(=O)N[C@H]1CSCc2cc3cc(c2)CSC[C@H](NC(=O)[C@H](CCCNC(=N)N)NC(=O)[C@H](C)NC(=O)[C@@H]2CCCN2C(=O)[C@H](Cc2ccc4ccccc4c2)NC(=O)[C@H](CO)NC1=O)C(=O)N[C@@H](CC(C)C)C(=O)N[C@@H](Cc1c[nH]cn1)C(=O)N[C@@H](CCC(N)=O)C(=O)N[C@@H](CC(=O)O)C(=O)N[C@@H](CC(C)C)C(=O)N[C@H](C(N)=O)CSC3) [Ac-(06-34-18) 2NAL2]	0.5 nM
Ac-CS[Bip]PARCLHQDLC-NH2 (linker 1-7-13 via TBMB; SMILES CC(=O)N[C@H]1CSCc2cc3cc(c2)CSC[C@H](NC(=O)[C@H](CCCNC(=N)N)NC(=O)[C@H](C)NC(=O)[C@@H]2CCCN2C(=O)[C@H](Cc2ccc(-c4ccccc4)cc2)NC(=O)[C@H](CO)NC1=O)C(=O)N[C@@H](CC(C)C)C(=O)N[C@@H](Cc1c[nH]cn1)C(=O)N[C@@H](CCC(N)=O)C(=O)N[C@@H](CC(=O)O)C(=O)N[C@@H](CC(C)C)C(=O)N[C@H](C(N)=O)CSC3) [Ac-(06-34-18) 4,4,BPal2]	464 nM
Ac-CS[3Pal]PARCLHQDLC-NH2 (linker 1-7-13 via TBMB; SMILES CC(=O)N[C@H]1CSCc2cc3cc(c2)CSC[C@H](NC(=O)[C@H](CCCNC(=N)N)NC(=O)[C@H](C)NC(=O)[C@@H]2CCCN2C(=O)[C@H](Cc2cccnc2)NC(=O)[C@H](CO)NC1=O)C(=O)N[C@@H](CC(C)C)C(=O)N[C@@H](Cc1c[nH]cn1)C(=O)N[C@@H](CCC(N)=O)C(=O)N[C@@H](CC(=O)O)C(=O)N[C@@H](CC(C)C)C(=O)N[C@H](C(N)=O)CSC3) [Ac-(06-34-18) 3Pal2]	59 nM
Ac-CS[Cha]PARCLHQDLC-NH2 (linker 1-7-13 via TBMB; SMILES CC(=O)N[C@H]1CSCc2cc3cc(c2)CSC[C@H](NC(=O)[C@H](CCCNC(=N)N)NC(=O)[C@H](C)NC(=O)[C@@H]2CCCN2C(=O)[C@H](CC2CCCCC2)NC(=O)[C@H](CO)NC1=O)C(=O)N[C@@H](CC(C)C)C(=O)N[C@@H](Cc1c[nH]cn1)C(=O)N[C@@H](CCC(N)=O)C(=O)N[C@@H](CC(=O)O)C(=O)N[C@@H](CC(C)C)C(=O)N[C@H](C(N)=O)CSC3) [Ac-(06-34-18) Cha2]	4.7 nM
Ac-CS[1Nal]PARCLHQDLC-NH2 (linker 1-7-13 via TBMB; SMILES CC(=O)N[C@H]1CSCc2cc3cc(c2)CSC[C@H](NC(=O)[C@H](CCCNC(=N)N)NC(=O)[C@H](C)NC(=O)[C@@H]2CCCN2C(=O)[C@H](Cc2cccc4ccccc24)NC(=O)[C@H](CO)NC1=O)C(=O)N[C@@H](CC(C)C)C(=O)N[C@@H](Cc1c[nH]cn1)C(=O)N[C@@H](CCC(N)=O)C(=O)N[C@@H](CC(=O)O)C(=O)N[C@@H](CC(C)C)C(=O)N[C@H](C(N)=O)CSC3) [Ac-(06-34-18) 1NAL2]	10.7 nM
Ac-CS[Tpi]PARCLHQDLC-NH2 (linker 1-7-13 via TBMB; SMILES CC(=O)N[C@H]1CSCc2cc3cc(c2)CSC[C@H](NC(=O)[C@H](CCCNC(=N)N)NC(=O)[C@H](C)NC(=O)[C@@H]2CCCN2C(=O)[C@@H]2Cc4c([nH]c5ccccc45)CN2C(=O)[C@H](CO)NC1=O)C(=O)N[C@@H](CC(C)C)C(=O)N[C@@H](Cc1c[nH]cn1)C(=O)N[C@@H](CCC(N)=O)C(=O)N[C@@H](CC(=O)O)C(=O)N[C@@H](CC(C)C)C(=O)N[C@H](C(N)=O)CSC3) [Ac-(06-34-18) NorHar2]	24 nM
Ac-CS[Dip]PARCLHQDLC-NH2 (linker 1-7-13 via TBMB; SMILES CC(=O)N[C@H]1CSCc2cc3cc(c2)CSC[C@H](NC(=O)[C@H](CCCNC(=N)N)NC(=O)[C@H](C)NC(=O)[C@@H]2CCCN2C(=O)[C@H](C(c2ccccc2)c2ccccc2)NC(=O)[C@H](CO)NC1=O)C(=O)N[C@@H](CC(C)C)C(=O)N[C@@H](Cc1c[nH]cn1)C(=O)N[C@@H](CCC(N)=O)C(=O)N[C@@H](CC(=O)O)C(=O)N[C@@H](CC(C)C)C(=O)N[C@H](C(N)=O)CSC3) [Ac-(06-34-18) 3,3-DPA2]	1.5 nM
Ac-CS[4Pal]PARCLHQDLC-NH2 (linker 1-7-13 via TBMB; SMILES CC(=O)N[C@H]1CSCc2cc3cc(c2)CSC[C@H](NC(=O)[C@H](CCCNC(=N)N)NC(=O)[C@H](C)NC(=O)[C@@H]2CCCN2C(=O)[C@H](Cc2ccncc2)NC(=O)[C@H](CO)NC1=O)C(=O)N[C@@H](CC(C)C)C(=O)N[C@@H](Cc1c[nH]cn1)C(=O)N[C@@H](CCC(N)=O)C(=O)N[C@@H](CC(=O)O)C(=O)N[C@@H](CC(C)C)C(=O)N[C@H](C(N)=O)CSC3) [Ac-(06-34-18) 4Pal2]	72 nM

Target: T1, human plasma Kallikrein
Experiment: enzyme inhibition assay
Remark: another data set of the same source

Binder	Ki
Ac-CSW[Aib]ARCLHQDLC-NH2 (linker 1-7-13 via TBMB; SMILES CC(=O)N[C@H]1CSCc2cc3cc(c2)CSC[C@H](NC(=O)[C@H](CCCNC(=N)N)NC(=O)[C@H](C)NC(=O)C(C)(C)NC(=O)[C@H](Cc2c[nH]c4ccccc24)NC(=O)[C@H](CO)NC1=O)C(=O)N[C@@H](CC(C)C)C(=O)N[C@@H](Cc1c[nH]cn1)C(=O)N[C@@H](CCC(N)=O)C(=O)N[C@@H](CC(=O)O)C(=O)N[C@@H](CC(C)C)C(=O)N[C@H](C(N)=O)CSC3) [Ac-(06-34-18) Aib3]	1.2 nM
Ac-CSW[Pip]ARCLHQDLC-NH2 (linker 1-7-13 via TBMB; SMILES CC(=O)N[C@H]1CSCc2cc3cc(c2)CSC[C@H](NC(=O)[C@H](CCCNC(=N)N)NC(=O)[C@H](C)NC(=O)[C@@H]2CCCCN2C(=O)[C@H](Cc2c[nH]c4ccccc24)NC(=O)[C@H](CO)NC1=O)C(=O)N[C@@H](CC(C)C)C(=O)N[C@@H](Cc1c[nH]cn1)C(=O)N[C@@H](CCC(N)=O)C(=O)N[C@@H](CC(=O)O)C(=O)N[C@@H](CC(C)C)C(=O)N[C@H](C(N)=O)CSC3) [Ac-(06-34-18) Pip3]	0.26 nM
Ac-CSW[Aze]ARCLHQDLC-NH2 (linker 1-7-13 via TBMB; SMILES CC(=O)N[C@H]1CSCc2cc3cc(c2)CSC[C@H](NC(=O)[C@H](CCCNC(=N)N)NC(=O)[C@H](C)NC(=O)[C@@H]2CCN2C(=O)[C@H](Cc2c[nH]c4ccccc24)NC(=O)[C@H](CO)NC1=O)C(=O)N[C@@H](CC(C)C)C(=O)N[C@@H](Cc1c[nH]cn1)C(=O)N[C@@H](CCC(N)=O)C(=O)N[C@@H](CC(=O)O)C(=O)N[C@@H](CC(C)C)C(=O)N[C@H](C(N)=O)CSC3, also called Ac-06-34-18(TMB)-NH2 Aze3) [Ac-(06-34-18) Aze3]	0.06 nM
Ac-CSW[Tic]ARCLHQDLC-NH2 (linker 1-7-13 via TBMB; SMILES CC(=O)N[C@H]1CSCc2cc3cc(c2)CSC[C@H](NC(=O)[C@H](CCCNC(=N)N)NC(=O)[C@H](C)NC(=O)[C@@H]2Cc4ccccc4CN2C(=O)[C@H](Cc2c[nH]c4ccccc24)NC(=O)[C@H](CO)NC1=O)C(=O)N[C@@H](CC(C)C)C(=O)N[C@@H](Cc1c[nH]cn1)C(=O)N[C@@H](CCC(N)=O)C(=O)N[C@@H](CC(=O)O)C(=O)N[C@@H](CC(C)C)C(=O)N[C@H](C(N)=O)CSC3) [Ac-(06-34-18) Tic3]	13.5 nM
Ac-CSW[Tpi]ARCLHQDLC-NH2 (linker 1-7-13 via TBMB; SMILES CC(=O)N[C@H]1CSCc2cc3cc(c2)CSC[C@H](NC(=O)[C@H](CCCNC(=N)N)NC(=O)[C@H](C)NC(=O)[C@@H]2Cc4c([nH]c5ccccc45)CN2C(=O)[C@H](Cc2c[nH]c4ccccc24)NC(=O)[C@H](CO)NC1=O)C(=O)N[C@@H](CC(C)C)C(=O)N[C@@H](Cc1c[nH]cn1)C(=O)N[C@@H](CCC(N)=O)C(=O)N[C@@H](CC(=O)O)C(=O)N[C@@H](CC(C)C)C(=O)N[C@H](C(N)=O)CSC3) [Ac-(06-34-18) NorHar3]	2.99 nM
Ac-CSW[4FluoPro]ARCLHQDLC-NH2 (linker 1-7-13 via TBMB) [Ac-(06-34-18) 4FluoPro3]	0.24 nM
Ac-CSW[Hyp]ARCLHQDLC-NH2 (linker 1-7-13 via TBMB; SMILES CC(=O)N[C@H]1CSCc2cc3cc(c2)CSC[C@H](NC(=O)[C@H](CCCNC(=N)N)NC(=O)[C@H](C)NC(=O)[C@@H]2C[C@@H](O)CN2C(=O)[C@H](Cc2c[nH]c4ccccc24)NC(=O)[C@H](CO)NC1=O)C(=O)N[C@@H](CC(C)C)C(=O)N[C@@H](Cc1c[nH]cn1)C(=O)N[C@@H](CCC(N)=O)C(=O)N[C@@H](CC(=O)O)C(=O)N[C@@H](CC(C)C)C(=O)N[C@H](C(N)=O)CSC3) [Ac-(06-34-18) HyP3]	0.41 nM
Ac-CSW[Ind]ARCLHQDLC-NH2 (linker 1-7-13 via TBMB; SMILES CC(=O)N[C@H]1CSCc2cc3cc(c2)CSC[C@H](NC(=O)[C@H](CCCNC(=N)N)NC(=O)[C@H](C)NC(=O)[C@@H]2Cc4ccccc4N2C(=O)[C@H](Cc2c[nH]c4ccccc24)NC(=O)[C@H](CO)NC1=O)C(=O)N[C@@H](CC(C)C)C(=O)N[C@@H](Cc1c[nH]cn1)C(=O)N[C@@H](CCC(N)=O)C(=O)N[C@@H](CC(=O)O)C(=O)N[C@@H](CC(C)C)C(=O)N[C@H](C(N)=O)CSC3) [Ac-(06-34-18) Ind3]	1.35 nM

Target: T1, human plasma Kallikrein
Experiment: enzyme inhibition assay
Remark: another data set of the same source

Binder	Ki
Ac-CSFP[2Nal]RCLHQDLC-NH2 (linker 1-7-13 via TBMB) [Ac-(06-34-18) Phe2 2Nal4]	7.27 nM
Ac-CSFP[Bip]RCLHQDLC-NH2 (linker 1-7-13 via TBMB) [Ac-(06-34-18) Phe2 4,4-BPal4]	10.5 nM

Target: T1, human plasma Kallikrein
Experiment: enzyme inhibition assay
Remark: another data set of the same source

Binder	fold increase in affinity against wildtype
Ac-CSW[Aze]ARCLHQDLC-NH2 (linker 1-7-13 via TBMB; SMILES CC(=O)N[C@H]1CSCc2cc3cc(c2)CSC[C@H](NC(=O)[C@H](CCCNC(=N)N)NC(=O)[C@H](C)NC(=O)[C@@H]2CCN2C(=O)[C@H](Cc2c[nH]c4ccccc24)NC(=O)[C@H](CO)NC1=O)C(=O)N[C@@H](CC(C)C)C(=O)N[C@@H](Cc1c[nH]cn1)C(=O)N[C@@H](CCC(N)=O)C(=O)N[C@@H](CC(=O)O)C(=O)N[C@@H](CC(C)C)C(=O)N[C@H](C(N)=O)CSC3, also called Ac-06-34-18(TMB)-NH2 Aze3) [Ac-(06-34-18) Aze3]	3 fold

Target: T2, Rat plasma Kallikrein (rat, UniProt P14272 391-638, limits assumed)
T2 construct: domain: catalytic domain; also called rPK; rat PK
T2 sequence (P14272 391-638 limits assumed): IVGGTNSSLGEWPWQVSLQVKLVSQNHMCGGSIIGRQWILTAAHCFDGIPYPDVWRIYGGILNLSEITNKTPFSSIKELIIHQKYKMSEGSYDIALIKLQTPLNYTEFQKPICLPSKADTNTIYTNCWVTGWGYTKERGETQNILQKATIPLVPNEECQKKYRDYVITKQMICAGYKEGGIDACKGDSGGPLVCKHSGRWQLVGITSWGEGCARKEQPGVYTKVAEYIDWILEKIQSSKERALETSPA
Experiment: enzyme inhibition assay

Binder	IC50
ACSWPAKCLHQDLCA (linker 2-8-14 via TBMB, also called WPAK peptide) [06-34-19 (01 + 05 + R/K)]	4.67 nM
